Target: T1, ZIKV envelope (E) protein, strain H/PF/2013, on purified virus particles (Zika virus (ZIKV-H/PF/2013))
T1 construct: envelope (E) protein of Zika virus strain H/PF/2013, cut product of the viral polyprotein, membrane-anchored on the virus particle; the entire E protein with its transmembrane regions was fitted; Stood on whole virus particles (catSP after 37 °C with Fab C10) together with the M protein and the lipid membrane
Assay: cryoEM micrographs and 2D averages; Fab mixed with purified virus at a molar ratio of 1.5 Fab to E protein; Fab added before exposure to 37 °C (DENV3-CH53489, ZIKV) or after the virus was incubated at 37 °C (DENV3-CH53489); binding seen as spiky surface and Fab density in 2D averages
Settings: both partners purified

B1: Fab C10 (Fab, V domains shown)
VH: EVQLVESGAEVKKPGASVKVSCKASGYTFTSYAMHWVRQAPGQRLEWMGWINAGNGNTKYSQKFQDRVTITRDTSASTAYMELSSLRSEDTAIYYCARDKVDDYGDYWFPTLWYFDYWGQGTLVTVS
VL: ALTQPASVSGSPGQSITISCTGTSSDVGGFNYVSWFQQHPGKAPKLMLYDVTSRPSGVSSRFSGSKSGNTASLTISGLQAEDEADYYCSSHTSRGTWVFGGGTKLTVL
notes: Only the variable regions of the Fab were fitted into the maps; also called antibody C10; Fab fragment of antibody C10; source: monoclonal antibody C10 obtained from Gavin Screaton; Fab made from IgG with papain conjugated resins, purified (anion-exchange, gel filtration)
Question: Does B1 bind?
Answer: binds

Reference: publication PMC7305169, “High flavivirus structural plasticity demonstrated by a non-spherical morphological variant” (Nature Communications, 2020)
